Measurements reported in patent US20030148956A1 (PROCTER AND GAMBLE, published 2003).
Ends that are not written are not given here.

T1: CRF2R
T1 sequence (Q13324 whole entry, species assumed, looked up): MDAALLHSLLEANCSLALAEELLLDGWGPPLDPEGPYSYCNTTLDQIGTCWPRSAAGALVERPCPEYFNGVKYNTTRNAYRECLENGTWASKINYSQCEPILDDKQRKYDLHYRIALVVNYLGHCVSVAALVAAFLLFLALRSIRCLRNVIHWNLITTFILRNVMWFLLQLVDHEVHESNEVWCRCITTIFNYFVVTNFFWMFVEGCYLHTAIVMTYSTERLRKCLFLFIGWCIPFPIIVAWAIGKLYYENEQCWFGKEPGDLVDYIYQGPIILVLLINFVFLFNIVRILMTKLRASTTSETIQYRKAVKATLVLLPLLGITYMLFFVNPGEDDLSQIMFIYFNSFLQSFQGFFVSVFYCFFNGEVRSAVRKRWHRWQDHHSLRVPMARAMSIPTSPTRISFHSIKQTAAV


Key:
CRF2R = target: T1, CRF2R; assay: cell-based or functional assay
CRF1R = assay: cell-based or functional assay

| Binder | CRF2R EC50 (CRF2R) [nM] | CRF2R Emax (CRF2R) [%] | CRF1R EC50 (CRF1R) [nM] | CRF1R Emax (CRF1R) [%] |
| --- | --- | --- | --- | --- |
| ZGPPISIDLPLYLLRKMIEIEKQEKEKQQAANNRLLLDT (C-terminal amide) [SEQ ID NO 81] | 4.3 | 73 | 60.9 | 81 |
| SQEPPISLDLTIGLLREVLEMTKADQLAQQAHSNRKLLDIA-NH2 [SEQ ID NO 86] | 100 | 8.1 | 100 | 4.6 |
| IVLSLDVPGPLLQILLEQTKQEAAREQATTNARILARV-NH2 [SEQ ID NO 5] | 100 | 12 | 100 | 9 |
| ZGPPISIDLPTILLRKMIEIEKQEKEKQQAANNRLLLDTI (C-terminal amide) [SEQ ID NO 50] | 19 | 94 | > 1000 | 42 |
| ZGPPISIDLPTELLRKMIEIEKQEKEKQQAANNRLLLDTI (C-terminal amide) [SEQ ID NO 71] | 94.8 | 56 | > 100 | 6 |
| ZGPPISIDLPFELLRKMIEIEKQEKEKQQAANNRLLLDTI (C-terminal amide) [SEQ ID NO 67] | 10 | 50 | 44.2 | 96 |
| ZGPPISIDLPIHLLRKMIEIEKQEKEKQQAANNRLLLDTI (C-terminal amide) [SEQ ID NO 77] | 43.4 | 100 | > 100 | 5 |
| ZGPPISIDLPGYLLRKMIEIEKQEKEKQQAANNRLLLDTI (C-terminal amide) [SEQ ID NO 63] | 67.3 | 100 | 73.2 | 34 |
| ZGPPISIDLPLQLLRKMIEIEKQEKEKQQAANNRLLLDTI (C-terminal amide) [SEQ ID NO 80] | 6.53 | 88 | > 100 | 55 |
| ZGPPISIDLPIELLRKMIEIEKQEKEKQQAANNRLLLDTI (C-terminal amide) [SEQ ID NO 76] | 91.5 | 76 | > 100 | 7 |
| ZGPPISIDLPFHLLRKMIEIEKQEKEKQQAANNRLLLDTI (C-terminal amide) [SEQ ID NO 69] | 5.85 | 81 | 34.5 | 88 |
| ZGPPISIDLPTGLLRKMIEIEKQEKEKQQAANNRLLLDTI (C-terminal amide) [SEQ ID NO 73] | > 100 | 11 | > 100 | 11 |
| ZGPPISIDLPWYLLRKMIEIEKQEKEKQQAANNRLLLDTI (C-terminal amide) [SEQ ID NO 55] | 7.95 | 95 | 11.6 | 92 |
| ZGPPISIDLPTRLLRKMIEIEKQEKEKQQAANNRLLLDTI (C-terminal amide) [SEQ ID NO 60] | > 100 | 44 | > 100 | 8 |
| ZGPPISIDLPFQLLRKMIEIEKQEKEKQQAANNRLLLDTI (C-terminal amide) [SEQ ID NO 84] | 1.77 | 100 | 82.2 | 99 |
| ZGPPISIDLPTQLLRKMIEIEKQEKEKQQAANNRLLLDTI (C-terminal amide) [SEQ ID NO 72] | > 100 | 55 | > 100 | 4 |
| ZGPPISIDLPFGLLRKMIEIEKQEKEKQQAANNRLLLDTI (C-terminal amide) [SEQ ID NO 68] | 38.5 | 74 | > 100 | 33 |
| ZGPPISIDLPIYLLRKMIEIEKQEKEKQQAANNRLLLDTI (C-terminal amide) [SEQ ID NO 79] | 22.3 | 100 | > 100 | 8 |
| ZGPPISIDLPIGLLRKMIEIEKQEKEKQQAANNRLLLDTI (C-terminal amide) [SEQ ID NO 75] | > 100 | 52 | > 100 | 5 |

| Binder | CRF2R EC50 (CRF2R) [nM] | CRF2R Emax (CRF2R) [%] | CRF1R EC50 (CRF1R) [nM] | CRF1R Emax (CRF1R) [%] |
| --- | --- | --- | --- | --- |
| ZGPPISIDLPISLLRKMIEIEKQEKEKQQAANNRLLLDTI (C-terminal amide) [SEQ ID NO 53] | > 100 | 95 | > 1000 | 19 |
| ZGPPISIDLPTALLRKMIEIEKQEKEKQQAANNRLLLDTI (C-terminal amide) [SEQ ID NO 61] | > 100 | 89 | > 100 | 12 |
| ZGPPISIDLPTPLLRKMIEIEKQEKEKQQAANNRLLLDTI (C-terminal amide) [SEQ ID NO 52] | > 100 | 10 | > 1000 | 13 |
| ZGPPISIDLPFYLLRKMIEIEKQEKEKQQAANNRLLLDTI (C-terminal amide) [SEQ ID NO 85] | 2.34 | 100 | 11 | 84 |
| ZGPPISIDLPLELLRKMIEIEKQEKEKQQAANNRLLLDTI (C-terminal amide) [SEQ ID NO 82] | 10.9 | 90 | 96.2 | 85 |
| ZGPPISIDLPRYLLRKMIEIEKQEKEKQQAANNRLLLDTI (C-terminal amide) [SEQ ID NO 65] | 67.9 | 64 | > 100 | 16 |
| ZGPPISIDLPSYLLRKMIEIEKQEKEKQQAANNRLLLDTI (C-terminal amide) [SEQ ID NO 56] | 50.4 | 87 | > 100 | 14 |
| ZGPPISIDLPIQLLRKMIEIEKQEKEKQQAANNRLLLDTI (C-terminal amide) [SEQ ID NO 78] | 24.6 | 78 | > 100 | 6 |
| ZGPPISIDLPLHLLRKMIEIEKQEKEKQQAANNRLLLDTI (C-terminal amide) [SEQ ID NO 83] | 1.91 | 81 | 52.2 | 96 |
| ZGPPISIDLPNYLLRKMIEIEKQEKEKQQAANNRLLLDTI (C-terminal amide) [SEQ ID NO 64] | 63.3 | 94 | 68.9 | 57 |
| ZGPPISIDLPPYLLRKMIEIEKQEKEKQQAANNRLLLDTI (C-terminal amide) [SEQ ID NO 57] | > 100 | 46 | > 100 | 12 |
| ZGPPISIDLPKYLLRKMIEIEKQEKEKQQAANNRLLLDTI (C-terminal amide) [SEQ ID NO 58] | 71.6 | 100 | > 100 | 16 |
| ZGPPISIDLPTLLLRKMIEIEKQEKEKQQAANNRLLLDTI (C-terminal amide) [SEQ ID NO 51] | 20.6 | 100 | > 1000 | 48 |
| ZGPPISIDLPTHLLRKMIEIEKQEKEKQQAANNRLLLDTI (C-terminal amide) [SEQ ID NO 74] | 55 | 100 | > 100 | 7 |
| ZGPPISIDLPDYLLRKMIEIEKQEKEKQQAANNRLLLDTI (C-terminal amide) [SEQ ID NO 54] | 100 | 11 | 1000 | 10 |
| ZGPPISIDLPTYLLRKMIEIEKQEKEKQQAANNRLLLDTI (C-terminal amide) [SEQ ID NO 70] | 18.2 | 82 | > 100 | 8 |
| ZGPPISIDLPTNLLRKMIEIEKQEKEKQQAANNRLLLDTI (C-terminal amide) [SEQ ID NO 59] | > 100 | 27 | > 100 | 10 |
| IVLSLDVPIGLLQELLEMARAEQLAQQAHSNRKLMEII-NH2 [SEQ ID NO 1] | 31.5 | 10 | 783 | 64 |
